Assay [1] deals with recombinant human calcitonin receptor (hCT-R) (human), P30988. Put plainly: cell-based or functional assay.
The target in assay [2] is recombinant human amylin 3 receptor (hAMYR3) (human), P30988. Put plainly: cell-based or functional assay.

Experimental findings from patent US20180071366A1 are described below.

Numbered stars: 1 amine (or outer) side, 2 acyl side, 3 side chain; on linkers, the order of the positions; unused ones are H or OH. Bridge positions count the residues as written; N and C are the ends. Square brackets hold non-standard residues; d marks the D form. * marks the point of attachment. C20 diacid = O=C(O)CCCCCCCCCCCCCCCCCCC(=O)*; γGlu = O=C(O)[C@H](CCC(=O)[*:2])N[*:1]; Hyp = O=C(O)[C@@H]1C[C@@H](O)CN1; NMeI = CC[C@H](C)[C@H](NC)C(=O)O; Aad = N[C@@H](CCCC(=O)O)C(=O)O; Sar = CNCC(=O)O

Chain of recombinant human calcitonin receptor (hCT-R) (human), P30988 (P30988 25-474): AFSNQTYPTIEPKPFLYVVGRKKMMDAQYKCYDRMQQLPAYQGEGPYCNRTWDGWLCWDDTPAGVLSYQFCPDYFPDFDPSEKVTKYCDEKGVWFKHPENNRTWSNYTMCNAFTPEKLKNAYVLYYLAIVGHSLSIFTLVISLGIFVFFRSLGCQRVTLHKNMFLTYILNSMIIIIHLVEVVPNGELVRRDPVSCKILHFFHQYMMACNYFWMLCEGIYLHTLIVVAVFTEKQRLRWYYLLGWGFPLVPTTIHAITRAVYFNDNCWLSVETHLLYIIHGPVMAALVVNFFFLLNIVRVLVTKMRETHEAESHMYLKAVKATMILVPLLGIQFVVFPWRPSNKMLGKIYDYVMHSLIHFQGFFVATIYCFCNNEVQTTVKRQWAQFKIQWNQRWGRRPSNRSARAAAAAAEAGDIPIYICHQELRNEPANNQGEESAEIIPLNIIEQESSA
Chain of recombinant human amylin 3 receptor (hAMYR3) (human), P30988 (P30988 25-474, chain 1 of 2): as the sequence (P30988 25-474) above
Chain of recombinant human amylin 3 receptor (hAMYR3) (human), P30988 (O60896 24-148, chain 2 of 2, further chain): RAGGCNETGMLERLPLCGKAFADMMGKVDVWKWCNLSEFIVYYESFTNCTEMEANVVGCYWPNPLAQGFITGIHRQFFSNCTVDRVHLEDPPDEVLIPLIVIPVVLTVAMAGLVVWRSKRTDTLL

B1: Compound 37 (peptide)
peptide: {C20 diacid-γGlu}-EDGTATKATERLA[Aad]FLQRSSF[Sar]A[NMeI]LSSTEVGSNT[Hyp]-NH2
modifications: lactam 2-7
SMILES: CC[C@H](C)[C@@H](C(=O)N[C@@H](CC(C)C)C(=O)N[C@@H](CO)C(=O)N[C@@H](CO)C(=O)N[C@H](C(=O)N[C@@H](CCC(=O)O)C(=O)N[C@H](C(=O)NCC(=O)N[C@@H](CO)C(=O)N[C@@H](CC(N)=O)C(=O)N[C@H](C(=O)N1C[C@H](O)C[C@H]1C(N)=O)[C@@H](C)O)C(C)C)[C@@H](C)O)N(C)C(=O)[C@H](C)NC(=O)CN(C)C(=O)[C@H](Cc1ccccc1)NC(=O)[C@H](CO)NC(=O)[C@H](CO)NC(=O)[C@H](CCCNC(=N)N)NC(=O)[C@H](CCC(N)=O)NC(=O)[C@H](CC(C)C)NC(=O)[C@H](Cc1ccccc1)NC(=O)[C@H](CCCC(=O)O)NC(=O)[C@H](C)NC(=O)[C@H](CC(C)C)NC(=O)[C@H](CCCNC(=N)N)NC(=O)[C@H](CCC(=O)O)NC(=O)[C@@H](NC(=O)[C@H](C)NC(=O)[C@@H]1CCCCNC(=O)C[C@H](NC(=O)[C@H](CCC(=O)O)NC(=O)CC[C@H](NC(=O)CCCCCCCCCCCCCCCCCCC(=O)O)C(=O)O)C(=O)NCC(=O)N[C@@H]([C@@H](C)O)C(=O)N[C@@H](C)C(=O)N[C@@H]([C@@H](C)O)C(=O)N1)[C@@H](C)O
For B1, the hCT-R EC50 [nM] (cAMP formation, 1321N1 cells expressing hCT-R) in assay [1] was found to be 0.116 nM. For the same molecule, the hAMYR3 EC50 [nM] (cAMP formation, 1321N1 cells expressing hAMYR3) in assay [2] was 0.031 nM.

B2: Compound 38 (peptide)
peptide: {C20 diacid-γGlu}-RDGTATKATERLA[Aad]FLQRTTF[Sar]A[NMeI]LSSTEVGSNT[Hyp]-NH2
modifications: lactam 2-7
SMILES: CC[C@H](C)[C@@H](C(=O)N[C@@H](CC(C)C)C(=O)N[C@@H](CO)C(=O)N[C@@H](CO)C(=O)N[C@H](C(=O)N[C@@H](CCC(=O)O)C(=O)N[C@H](C(=O)NCC(=O)N[C@@H](CO)C(=O)N[C@@H](CC(N)=O)C(=O)N[C@H](C(=O)N1C[C@H](O)C[C@H]1C(N)=O)[C@@H](C)O)C(C)C)[C@@H](C)O)N(C)C(=O)[C@H](C)NC(=O)CN(C)C(=O)[C@H](Cc1ccccc1)NC(=O)[C@@H](NC(=O)[C@@H](NC(=O)[C@H](CCCNC(=N)N)NC(=O)[C@H](CCC(N)=O)NC(=O)[C@H](CC(C)C)NC(=O)[C@H](Cc1ccccc1)NC(=O)[C@H](CCCC(=O)O)NC(=O)[C@H](C)NC(=O)[C@H](CC(C)C)NC(=O)[C@H](CCCNC(=N)N)NC(=O)[C@H](CCC(=O)O)NC(=O)[C@@H](NC(=O)[C@H](C)NC(=O)[C@@H]1CCCCNC(=O)C[C@H](NC(=O)[C@H](CCCNC(=N)N)NC(=O)CC[C@H](NC(=O)CCCCCCCCCCCCCCCCCCC(=O)O)C(=O)O)C(=O)NCC(=O)N[C@@H]([C@@H](C)O)C(=O)N[C@@H](C)C(=O)N[C@@H]([C@@H](C)O)C(=O)N1)[C@@H](C)O)[C@@H](C)O)[C@@H](C)O
Take B2: the hCT-R EC50 [nM] (cAMP formation, 1321N1 cells expressing hCT-R) in assay [1] is 0.114 nM. Also, the hAMYR3 EC50 [nM] (cAMP formation, 1321N1 cells expressing hAMYR3) in assay [2] was 0.06 nM.
